Target: T1, Mayaro virus (MAYV) structural proteins on infected cells (Mayaro virus)
T1 construct: whole, on cells
Experiment: flow cytometry, surface staining of MAYV-infected Vero cells with serial dilutions, % binding to infected cells

B1: Mxra8-Fc (extracellular domain of mouse Mxra8 fused to mouse IgG2b Fc) (Fc fusion)
chain: SGPSGTAAASSSLVSESVVSLAAGTQAVLRCQSPRMVWTQDRLHDRQRVVHWDLSGGPGSQRRRLVDMYSAGEQRVYEPRDRDRLLLSPSAFHDGNFSLLIRAVDRGDEGVYTCNLHHHYCHLDESLAVRLEVTEDPLLSRAYWDGEKEVLVVAHGAPALMTCINRAHVWTDRHLEEAQQVVHWDRQLPGVSHDRADRLLDLYASGERRAYGPPFLRDRVSVNTNAFARGDFSLRIDELERADEGIYSCHLHHHYCGLHERRVFHLQVTEPAFEPPARASPGNGSGHSSAPSPDPTLTRGHSIINVIVPEDHTHPSGPISTINPCPPCKECHKCPAPNLEGGPSVFIFPPNIKDVLMISLTPKVTCVVVDVSEDDPDVQISWFVNNVEVHTAQTQTHREDYNSTIRVVSTLPIQHQDWMSGKEFKCKVNNKDLPSPIERTISKIKGLVRAPQVYILPPPAEQLSRKDVSLTCLVVGFNPGDISVEWTSNGHTEENYKDTAPVLDSDGSYFIYSKLNMKTSKWEKTDSFSCNVRHEGLKNYYLKKTISRSPGK
notes: also called mMxra8-Fc; mouse Mxra8-Fc
- EC50 (read off the curve): ~3 ng/mL

Source: US20240124553A1 (WASHINGTON UNIVERSITY, published 2024)
